The values below come from patent publication US20220177591A1 (TARGINTA, published 2022).

The test has as its target T1, human integrin alpha10 on human cancer cell lines (BT549, PC-3, A549, MiaPaCa-2, PANC-1) (human, UniProt O75578 23-1167).
T1 construct: Endogenous protein on human cell lines; also called integrin alpha10 polypeptide; alpha10 subunit of integrin alpha10 beta1
T1 sequence: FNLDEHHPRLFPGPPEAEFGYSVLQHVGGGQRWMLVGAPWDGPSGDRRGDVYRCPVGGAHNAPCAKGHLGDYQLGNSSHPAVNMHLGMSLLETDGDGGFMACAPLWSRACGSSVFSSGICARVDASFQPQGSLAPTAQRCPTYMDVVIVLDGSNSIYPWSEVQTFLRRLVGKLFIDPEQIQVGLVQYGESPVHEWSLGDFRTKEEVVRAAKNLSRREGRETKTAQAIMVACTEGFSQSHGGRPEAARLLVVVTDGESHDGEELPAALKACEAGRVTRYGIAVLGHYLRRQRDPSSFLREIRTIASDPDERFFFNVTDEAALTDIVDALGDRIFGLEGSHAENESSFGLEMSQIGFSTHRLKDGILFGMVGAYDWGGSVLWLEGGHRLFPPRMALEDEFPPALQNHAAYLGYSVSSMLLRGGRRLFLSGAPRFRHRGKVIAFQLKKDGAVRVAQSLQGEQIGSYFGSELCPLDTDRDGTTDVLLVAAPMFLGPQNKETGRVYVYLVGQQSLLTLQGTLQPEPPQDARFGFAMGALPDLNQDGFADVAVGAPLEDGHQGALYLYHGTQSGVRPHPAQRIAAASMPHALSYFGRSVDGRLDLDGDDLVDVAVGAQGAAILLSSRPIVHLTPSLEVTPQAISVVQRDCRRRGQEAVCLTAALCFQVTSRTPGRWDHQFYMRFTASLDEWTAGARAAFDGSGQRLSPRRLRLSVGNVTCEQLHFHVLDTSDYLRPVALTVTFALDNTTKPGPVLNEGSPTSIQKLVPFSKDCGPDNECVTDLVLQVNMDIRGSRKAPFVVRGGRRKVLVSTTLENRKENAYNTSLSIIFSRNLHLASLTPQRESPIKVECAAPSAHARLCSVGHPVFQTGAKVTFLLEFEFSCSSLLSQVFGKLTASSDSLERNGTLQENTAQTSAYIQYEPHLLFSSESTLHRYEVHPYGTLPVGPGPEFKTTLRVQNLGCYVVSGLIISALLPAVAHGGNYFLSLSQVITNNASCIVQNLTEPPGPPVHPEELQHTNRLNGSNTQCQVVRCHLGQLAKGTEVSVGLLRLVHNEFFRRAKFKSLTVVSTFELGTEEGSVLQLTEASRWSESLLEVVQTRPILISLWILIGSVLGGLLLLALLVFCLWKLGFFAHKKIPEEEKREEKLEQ
The test is described as follows: flow cytometry competition on BT549 cells. The procedure:
The binding competition assay of the antibody mouse monoclonal antibody mAbα10 and the human monoclonal antibody Th101 was performed in integrin alpha10 overexpressing C2C12α10 cells and triple-negative breast cancer BT549 cells. The cells were incubated with single or mixed antibodies at the indicated concentrations (μg/ml) for 30 min followed by two washed, and then stained with secondary antibodies for 30 min. Donkey anti-human Alexa 488 was used as a secondary antibody to the human monoclonal antibody Th101. Donkey anti-mouse Alexa 647 was used as a secondary antibody to the mouse monoclonal antibody mAbα10. The binding of the antibodies was analyzed by flow cytometry, wherein the fluorescence signal of the secondary antibodies were detected.
On the technique in general: In flow cytometry, cells or beads pass a laser one at a time.

B1: human monoclonal anti-integrin alpha10 antibody Th101 (antibody, V domains shown)
VH: EVQLLESGGGLVQPGGSLRLSCAASGFTFSDYGMNWVRQAPGKGLEWVAVISYDGSNKYYADSVKGRFTISRDNSKNTLYLQMNSLRAEDTAVYYCARGGNWGVFDYWGQGTLVTVSS
VL: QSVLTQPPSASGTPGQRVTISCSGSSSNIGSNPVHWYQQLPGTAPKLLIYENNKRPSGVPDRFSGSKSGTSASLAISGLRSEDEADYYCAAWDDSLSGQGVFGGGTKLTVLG
notes: It is a human monoclonal antibody detected with an anti-human secondary; Its negative control Th301 is human IgG1 VH/Lambda
As to B1, the binding result is recorded as “binds”.
